Residue numbers refer to the chain shown, from its start.

The target of assay [1] is T1, human CSF-1R fragment D1-D3 (human, UniProt P07333 20-311).
T1 construct: Subcloned into the pCMV-presS-HisAvitag expression vector; not shown: His-Avi tag of the vector pCMV-presS-HisAvitag
As to the kind of experiment: SPR Biacore T100, 37 C, antibody captured, D1-D3 single cycle kinetics. Here is the method:
Antibodies against CSF-1R were captured via amine coupled capture molecules. Using the single cycle kinetics five increasing concentrations of human CSF-1R fragment D1-D3 (SEQ ID NO: 66) were injected. Human CSF-1R fragment D1-D3 was subcloned into pCMV-presS-HisAvitag expression vector.
Single Cycle Kinetics was measured at a flow rate of 30 μL/min by five consecutive injections of the analyte with concentrations, c=7.8, 31.25, 125 500 and 2000 nM, without regeneration. Each injection was 30 seconds long and followed by a dissociation phase of 120 Seconds for the first four injections, and finally 1200 seconds for the highest concentration (=last injection).
Kinetic parameters were calculated by using the usual double referencing (control reference: binding of analyte to capture molecule; Flow Cell: subdomain CSF-1R concentration “0” as Blank) and calculation with model ‘titration kinetics 1:1 binding with draft’.
For orientation: In SPR one partner is held on a chip, and binding of the other changes the refractive index at the surface.

Assay [2] deals with CSF-1R of cynomolgous monocytes (cynomolgous). The assay is described as follows: cell-based or functional assay.

T1 sequence (P07333 20-311): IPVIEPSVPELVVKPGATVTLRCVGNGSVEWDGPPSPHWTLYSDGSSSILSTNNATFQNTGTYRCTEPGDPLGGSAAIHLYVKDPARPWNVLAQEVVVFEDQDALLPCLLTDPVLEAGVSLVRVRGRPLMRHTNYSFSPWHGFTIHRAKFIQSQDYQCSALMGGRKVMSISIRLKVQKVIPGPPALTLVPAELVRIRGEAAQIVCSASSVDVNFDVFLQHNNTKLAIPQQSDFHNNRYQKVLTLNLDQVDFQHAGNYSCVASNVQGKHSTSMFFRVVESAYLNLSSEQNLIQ

B1: Mab 2F11 (antibody, V domains shown)
VH: QVQLKESGPGLVAPSQSLSITCTVSGFSLTTYDISWIRQSPGKGLEWLGVIWTDGGTNYNSPFMSRLSIRKDNSKSQVFLKMNRLQTDDTAIYYCVRDQRLYFDVWGAGTTVTVSS
VL: NIVMTQSPKSMSMSVGERVTLNCKASEDVNTYVSWYQQQPEQSPKLLIYGASNRYTGVPDRFTGGGSTTDFTLTISSVQAEDLADYFCGQSFSYPTFGTGTKLEIK
notes: Murine monoclonal antibody from a hybridoma; also called muMab 2F11
For B1, the binding result in assay [1] is given as “no binding (tested: 2000 nM)”. In assay [2], the “% inhibition (of survival) = (100% - % survival)” value (“% inhibition (of survival) =” below) worked out at 96% and the “% survival (cynomolgous monocytes, 5 µg/ml antibody)” value came out at 4%.

B2: Mab 2E10 (antibody, V domains shown)
VH: QVQLKESGPGLVAPSKSLSITCTVSGSSLDSFDISWIRQSPGKGLEWLGVIWTGGGTNYNSGFMSRLRITKDNSKSQVLLKMNSLQSDDTAIYYCVRDPRLYFDVWGAGTTVTVSS
VL: B1 VL with N22S, N30V, Q39K, E41D, G65S, T68A, F87Y, S91T
notes: Murine monoclonal antibody from a hybridoma
Consider B2, for which the binding result in assay [1] is on record as “no binding (tested: 2000 nM)”. Also, in assay [2], the “% inhibition (of survival) =” value was determined as 83% and the “% survival (cynomolgous monocytes, 5 µg/ml antibody)” value was determined as 17%.

B3: Mab 1G10 (antibody, V domains shown)
VH: B1 VH with Q1R, T31S, T53S, D54G, S68R, R70S, N73D, K75R, M82V, Q99L
VL: KIVMTQSPKSMSVSVGERVSLSCKASEDVGTYVSWYQQKPEQSPKLLIYGSSNRYTGVPDRFTGSGSATDFTLTISSVQAEDLADYSCGQSFTYPTFGTGTKLEIK
notes: as for B2
Consider B3, for which the binding result in assay [1] is on record as “no binding (tested: 2000 nM)”. In assay [2], the “% inhibition (of survival) =” value stood at 98% and the “% survival (cynomolgous monocytes, 5 µg/ml antibody)” value was 2%.

B4: Mab 2H7 (antibody, V domains shown)
VH: B2 VH with S40P, T70S, L79F, N83S
VL: B1 VL with N22S, N30V, Q39K, G65S, T68A, V78I, F87Y, S91T
notes: as for B2
B4: in assay [2], the “% inhibition (of survival) =” value came to 92% and the “% survival (cynomolgous monocytes, 5 µg/ml antibody)” value was found to be 8%.

Source of the values: patent US20110165156A1 (published 2011).
